Measurements reported in patent US20110171126A1.

What was measured:
[1] = target: HLA-DR as expressed by cancer cell lines (human); assay: flow cytometry, permeabilized (cytoplasmic), Panc-1 cells
[2] = target: HLA-DR as expressed by cancer cell lines (human); assay: flow cytometry, surface, HT29 cells + IFNγ
[3] = target: HLA-DR as expressed by cancer cell lines (human); assay: flow cytometry, permeabilized (cytoplasmic), TU118 cells + IFNγ
[4] = target: HLA-DR as expressed by cancer cell lines (human); assay: flow cytometry, surface, U118 cells
[5] = target: HLA-DR as expressed by cancer cell lines (human); assay: flow cytometry, permeabilized (cytoplasmic), CAG cells + IFNγ
[6] = target: HLA-DR as expressed by cancer cell lines (human); assay: flow cytometry, permeabilized (cytoplasmic), Lovo cells
[7] = target: HLA-DR as expressed by cancer cell lines (human); assay: flow cytometry, surface, Aspc-1 cells
[8] = target: HLA-DR as expressed by cancer cell lines (human); assay: flow cytometry, permeabilized (cytoplasmic), Aspc-1 cells
[9] = target: HLA-DR as expressed by cancer cell lines (human); assay: flow cytometry, permeabilized (cytoplasmic), FSCCL cells + IFNγ
[10] = target: HLA-DR as expressed by cancer cell lines (human); assay: cell-based or functional assay
[11] = target: HLA-DR as expressed by cancer cell lines (human); assay: flow cytometry, surface, Moser cells
[12] = target: HLA-DR as expressed by cancer cell lines (human); assay: flow cytometry, surface, U87 cells + IFNγ
[13] = target: HLA-DR as expressed by cancer cell lines (human); assay: flow cytometry, surface, HT29 cells
[14] = target: HLA-DR as expressed by cancer cell lines (human); assay: flow cytometry, permeabilized (cytoplasmic), LS174T cells
[15] = target: HLA-DR as expressed by cancer cell lines (human); assay: flow cytometry, permeabilized (cytoplasmic), Lovo cells + IFNγ
[16] = target: HLA-DR as expressed by cancer cell lines (human); assay: flow cytometry, surface, TU118 cells
[17] = target: HLA-DR as expressed by cancer cell lines (human); assay: flow cytometry, surface, U87 cells
[18] = target: HLA-DR as expressed by cancer cell lines (human); assay: flow cytometry, surface, TU118 cells + IFNγ
[19] = target: HLA-DR as expressed by cancer cell lines (human); assay: flow cytometry, permeabilized (cytoplasmic), Panc-1 cells + IFNγ
[20] = target: HLA-DR as expressed by cancer cell lines (human); assay: flow cytometry, permeabilized (cytoplasmic), Capan cells + IFNγ
[21] = target: HLA-DR as expressed by cancer cell lines (human); assay: flow cytometry, permeabilized (cytoplasmic), LS174T cells + IFNγ
[22] = target: HLA-DR as expressed by cancer cell lines (human); assay: flow cytometry, permeabilized (cytoplasmic), Aspc-1 cells + IFNγ
[23] = target: HLA-DR as expressed by cancer cell lines (human); assay: flow cytometry, surface, LS174T cells + IFNγ
[24] = target: HLA-DR as expressed by cancer cell lines (human); assay: flow cytometry, surface, BxPC-3 cells
[25] = target: HLA-DR as expressed by cancer cell lines (human); assay: flow cytometry, surface, Lovo cells + IFNγ
[26] = target: HLA-DR as expressed by cancer cell lines (human); assay: flow cytometry, surface, CAG cells
[27] = target: HLA-DR as expressed by cancer cell lines (human); assay: flow cytometry, surface, Moser cells + IFNγ
[28] = target: HLA-DR as expressed by cancer cell lines (human); assay: flow cytometry, surface, KMS11 cells + IFNγ
[29] = target: HLA-DR as expressed by cancer cell lines (human); assay: flow cytometry, permeabilized (cytoplasmic), RL cells
[30] = target: HLA-DR as expressed by cancer cell lines (human); assay: flow cytometry, surface, KMS11 cells
[31] = target: HLA-DR as expressed by cancer cell lines (human); assay: flow cytometry, permeabilized (cytoplasmic), RL cells + IFNγ
[32] = target: HLA-DR as expressed by cancer cell lines (human); assay: flow cytometry, permeabilized (cytoplasmic), U87 cells + IFNγ
[33] = target: HLA-DR as expressed by cancer cell lines (human); assay: flow cytometry, surface, CAG cells + IFNγ
[34] = target: HLA-DR as expressed by cancer cell lines (human); assay: flow cytometry, permeabilized (cytoplasmic), BxPC-3 cells
[35] = target: HLA-DR as expressed by cancer cell lines (human); assay: flow cytometry, surface, Panc-1 cells
[36] = target: HLA-DR as expressed by cancer cell lines (human); assay: flow cytometry, permeabilized (cytoplasmic), KMS11 cells + IFNγ
[37] = target: HLA-DR as expressed by cancer cell lines (human); assay: flow cytometry, permeabilized (cytoplasmic), U118 cells + IFNγ
[38] = target: HLA-DR as expressed by cancer cell lines (human); assay: flow cytometry, surface, BxPC-3 cells + IFNγ
[39] = target: HLA-DR as expressed by cancer cell lines (human); assay: flow cytometry, surface, RL cells
[40] = target: HLA-DR as expressed by cancer cell lines (human); assay: flow cytometry, permeabilized (cytoplasmic), Moser cells + IFNγ
[41] = target: HLA-DR as expressed by cancer cell lines (human); assay: flow cytometry, permeabilized (cytoplasmic), HT29 cells + IFNγ
[42] = target: HLA-DR as expressed by cancer cell lines (human); assay: flow cytometry, permeabilized (cytoplasmic), HT29 cells
[43] = target: HLA-DR as expressed by cancer cell lines (human); assay: flow cytometry, surface, U118 cells + IFNγ
[44] = target: HLA-DR as expressed by cancer cell lines (human); assay: flow cytometry, surface, LS174T cells
[45] = target: HLA-DR as expressed by cancer cell lines (human); assay: flow cytometry, permeabilized (cytoplasmic), U87 cells
[46] = target: HLA-DR as expressed by cancer cell lines (human); assay: flow cytometry, surface, FSCCL cells + IFNγ
[47] = target: HLA-DR as expressed by cancer cell lines (human); assay: flow cytometry, surface, Capan cells + IFNγ
[48] = target: HLA-DR as expressed by cancer cell lines (human); assay: flow cytometry, permeabilized (cytoplasmic), U118 cells
[49] = target: HLA-DR as expressed by cancer cell lines (human); assay: flow cytometry, surface, Panc-1 cells + IFNγ
[50] = target: HLA-DR as expressed by cancer cell lines (human); assay: flow cytometry, permeabilized (cytoplasmic), Moser cells
[51] = target: HLA-DR as expressed by cancer cell lines (human); assay: flow cytometry, permeabilized (cytoplasmic), FSCCL cells
[52] = target: HLA-DR as expressed by cancer cell lines (human); assay: flow cytometry, surface, Lovo cells
[53] = target: HLA-DR as expressed by cancer cell lines (human); assay: flow cytometry, surface, Aspc-1 cells + IFNγ
[54] = target: HLA-DR as expressed by cancer cell lines (human); assay: flow cytometry, surface, FSCCL cells
[55] = target: HLA-DR as expressed by cancer cell lines (human); assay: flow cytometry, permeabilized (cytoplasmic), TU118 cells
[56] = target: HLA-DR as expressed by cancer cell lines (human); assay: flow cytometry, permeabilized (cytoplasmic), CAG cells
[57] = target: HLA-DR as expressed by cancer cell lines (human); assay: flow cytometry, surface, Capan-1 cells
[58] = target: HLA-DR as expressed by cancer cell lines (human); assay: flow cytometry, permeabilized (cytoplasmic), BxPC-3 cells + IFNγ
[59] = target: HLA-DR as expressed by cancer cell lines (human); assay: flow cytometry, permeabilized (cytoplasmic), KMS11 cells
[60] = target: HLA-DR as expressed by cancer cell lines (human); assay: flow cytometry, surface, RL cells + IFNγ
[61] = target: HLA-DR as expressed by cancer cell lines (human); assay: flow cytometry, permeabilized (cytoplasmic), Capan-1 cells

fluorescence intensity (flow cytometry) [1]: 22.7
fluorescence intensity (flow cytometry) [2]: 298
fluorescence intensity (flow cytometry) [3]: 215
fluorescence intensity (flow cytometry) [4]: 6.1
fluorescence intensity (flow cytometry) [5]: 2420
fluorescence intensity (flow cytometry) [6]: 32.5
fluorescence intensity (flow cytometry) [7]: 3.2
fluorescence intensity (flow cytometry) [8]: 11
fluorescence intensity (flow cytometry) [9]: 2520
fluorescence intensity (flow cytometry) [11]: 4
fluorescence intensity (flow cytometry) [12]: 172
fluorescence intensity (flow cytometry) [13]: 3.3
fluorescence intensity (flow cytometry) [14]: 23.4
fluorescence intensity (flow cytometry) [15]: 989
fluorescence intensity (flow cytometry) [16]: 5.08
fluorescence intensity (flow cytometry) [17]: 41.9
fluorescence intensity (flow cytometry) [18]: 93.5
fluorescence intensity (flow cytometry) [19]: 64.1
fluorescence intensity (flow cytometry) [20]: 253
fluorescence intensity (flow cytometry) [21]: 42.3
fluorescence intensity (flow cytometry) [22]: 73.6
fluorescence intensity (flow cytometry) [23]: 4.7
fluorescence intensity (flow cytometry) [24]: 2.3
fluorescence intensity (flow cytometry) [25]: 276
fluorescence intensity (flow cytometry) [26]: 1930
fluorescence intensity (flow cytometry) [27]: 8.5
fluorescence intensity (flow cytometry) [28]: 665
fluorescence intensity (flow cytometry) [29]: 1060
fluorescence intensity (flow cytometry) [30]: 677
fluorescence intensity (flow cytometry) [31]: 1180
fluorescence intensity (flow cytometry) [32]: 429
fluorescence intensity (flow cytometry) [33]: 1810
fluorescence intensity (flow cytometry) [34]: 14.2
fluorescence intensity (flow cytometry) [35]: 4.3
fluorescence intensity (flow cytometry) [36]: 927
fluorescence intensity (flow cytometry) [37]: 352
fluorescence intensity (flow cytometry) [38]: 43.8
fluorescence intensity (flow cytometry) [39]: 750
fluorescence intensity (flow cytometry) [40]: 40.5
fluorescence intensity (flow cytometry) [41]: 638
fluorescence intensity (flow cytometry) [42]: 9.1
fluorescence intensity (flow cytometry) [43]: 197
fluorescence intensity (flow cytometry) [44]: 5.3
fluorescence intensity (flow cytometry) [45]: 102
fluorescence intensity (flow cytometry) [46]: 1610
fluorescence intensity (flow cytometry) [47]: 66.2
fluorescence intensity (flow cytometry) [48]: 24.6
fluorescence intensity (flow cytometry) [49]: 4.7
fluorescence intensity (flow cytometry) [50]: 18.2
fluorescence intensity (flow cytometry) [51]: 1470
fluorescence intensity (flow cytometry) [52]: 7.3
fluorescence intensity (flow cytometry) [53]: 15.2
fluorescence intensity (flow cytometry) [54]: 1090
fluorescence intensity (flow cytometry) [55]: 23.6
fluorescence intensity (flow cytometry) [56]: 2320
fluorescence intensity (flow cytometry) [57]: 5.5
fluorescence intensity (flow cytometry) [58]: 130
fluorescence intensity (flow cytometry) [59]: 879
fluorescence intensity (flow cytometry) [60]: 862
fluorescence intensity (flow cytometry) [61]: 11.6
B1: hL243γ4P (humanized anti-HLA-DR antibody) (antibody, from a related filing, V domains shown)
VH: QVQLQQSGSELKKPGASVKVSCKASGFTFTNYGMNWVKQAPGQGLKWMGWINTYTREPTYADDFKGRFAFSLDTSVSTAYLQISSLKADDTAVYFCARDITAVVPTGFDYWGQGSLVTVSS
VL: DIQLTQSPSSLSASVGDRVTITCRASENIYSNLAWYRQKPGKAPKLLVFAASNLADGVPSRFSGSGSGTDYTFTISSLQPEDIATYYCQHFWTTPWAFGGGTKLQIKR
increased killing in vitro after IFN-γ exposure, WSU-FSCCL NHL cells [10]: 58%
